# T1: rat Kv4.2 α-subunit (rat) (UniProt Q63881)
# T1 sequence (looked up): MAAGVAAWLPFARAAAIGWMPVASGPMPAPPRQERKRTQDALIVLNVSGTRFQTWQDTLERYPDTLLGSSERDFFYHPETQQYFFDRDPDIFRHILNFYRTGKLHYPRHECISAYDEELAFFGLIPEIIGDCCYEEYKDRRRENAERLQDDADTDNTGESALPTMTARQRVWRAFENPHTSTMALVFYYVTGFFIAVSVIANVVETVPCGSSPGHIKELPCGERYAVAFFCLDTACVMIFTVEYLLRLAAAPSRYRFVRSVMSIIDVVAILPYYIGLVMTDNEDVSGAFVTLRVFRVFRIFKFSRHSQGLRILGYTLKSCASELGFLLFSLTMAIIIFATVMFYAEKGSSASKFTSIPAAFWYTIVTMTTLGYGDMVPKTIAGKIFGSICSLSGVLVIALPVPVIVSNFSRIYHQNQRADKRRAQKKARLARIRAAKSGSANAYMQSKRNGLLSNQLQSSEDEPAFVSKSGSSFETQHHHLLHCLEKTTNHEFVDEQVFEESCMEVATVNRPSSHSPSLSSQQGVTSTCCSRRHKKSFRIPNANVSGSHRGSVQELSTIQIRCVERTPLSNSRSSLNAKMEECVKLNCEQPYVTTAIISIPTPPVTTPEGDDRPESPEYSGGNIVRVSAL
# Target: T1, rat Kv4.2 α-subunit (rat)
# Test: cell-based or functional assay
"Inactivation time constant (ms, at 50 mV), CHO cells (rKv4.2 + vector: 28.2) [ms]","Peak Current (nA/cell at 50 mV), CHO cells, patch clamp (rKv4.2 + vector: 0.60) [nA/cell]","Peak Current Density (pA/pF at 50 mV), CHO cells (rKv4.2 + vector: 25.5) [pA/pF]","Recovery from Inactivation Time constant, CHO cells (rKv4.2 + vector: 272.2) [ms]",Binder
67.2,3.5,162,126,"KChIP3 (p19) (protein, UniProt Q9Y2W7 1-256, looked up, species assumed) Calsenilin: MQPAKEVTKASDGSLLGDLGHTPLSKKEGIKWQRPRLSRQALMRCCLVKWILSSTAPQGSDSSDSELELSTVRHQPEGLDQLQAQTKFTKKELQSLYRGFKNECPTGLVDEDTFKLIYAQFFPQGDATTYAHFLFNAFDADGNGAIHFEDFVVGLSILLRGTVHEKLKWAFNLYDINKDGYITKEEMLAIMKSIYDMMGRHTYPILREDAPAEHVERFFEKMDRNQDGVVTIEEFLEACQKDENIMSSMQLFENVI"
95.1,3.3,197,49.5,"KChIP2 (9ql) (protein, UniProt Q9NS61 1-270, looked up, species assumed) A-type potassium channel modulatory protein KCNIP2: MRGQGRKESLSDSRDLDGSYDQLTGHPPGPTKKALKQRFLKLLPCCGPQALPSVSETLAAPASLRPHRPRLLDPDSVDDEFELSTVCHRPEGLEQLQEQTKFTRKELQVLYRGFKNECPSGIVNEENFKQIYSQFFPQGDSSTYATFLFNAFDTNHDGSVSFEDFVAGLSVILRGTVDDRLNWAFNLYDLNKDGCITKEEMLDIMKSIYDMMGKYTYPALREEAPREHVESFFQKMDRNKDGVVTIEEFIESCQKDENIMRSMQLFDNVI"

# Source: patent publication US20030119102A1
